# Results reported in the DeepSol protein solubility set.
# Test: soluble on expression in E. coli; label from the status in PepcDB or PDB records
row,Sequence,soluble on expression in E. coli
1,MGSDKIHHHHHHMLAVEMRRIYKVYPDGVVALKGVDFTVEEGEIHGLLGENGAGKSTLMRILYGEIKPTKGEVKVFGDKVEFNGPWDAIRKGIAMVYQHFTLIPTFTVLENLYLSMLTINPNITINEVRKLAKEKMKDIGFSVPLDDVVEDLPIGIQQRVEIIKALMANAKILILDEPTSVLTPLEVEELFKTLRKLKENGITVIFITHKLKEVKEITDRVTVLRRGEVVGVAKTKEVSERDLAKMMVQREIVMEIKKSPASPGNTVLRVEDLWVKDDRGLDAVKGVSFELKEGEILGIAGVQGNGQKELAEALAGIRRIEKGRIELLGRDVTELSADKRYKAGLAYVPDSRKVGLVLDMSVVENVILTNLPSVMRGRRISWEKANKIGKEIVERFDVLVSSLSTPIKHLSGGNQQKVMVGREIIREPKVVIVSEPTQGLDIGATEFIRKTLVSLRDQGKGILLISTDLDEILQLSDRIAVMYEGKIMAIGKVEEFTLEKLGLLMGGVNA,not soluble
2,MGSDKIHHHHHHMLEELSENVWIAEGTCVSFHGFHGFHGFHGFHGFHGFQYPTRSVVVRLKSGAMWVWSPVKFDQDLADEIESLGTITHLVSPNKIHHLFLADWSSHVPTAKIWGPRSTVNKRRDLVFQPALDHLPPRDWAEDFEQFHVKGSLAMDEILFLHKQSNTLILADFSEHFSDQFLQRHWQPWQRRIGQFWGITEGRGFAPLDWRLSFLNRSHLRTLKQQLLDRQVDHVVMAHGEIARTDGHRFLQRSLAWI,not soluble
3,MGSDKIHHHHHHMLEREGIEISLRTIQRDLNQIAQRFPIESNKAVPQGWRWQSDAPIQSLPHMTSSQAVTFMMVEEHLKHLLPPSLLDEMGPWFDLAKRSLSTQNNVRQWINRVRIVPASQPLIPPVVDRAAQQAIYEGLLQDKQIECVYRARVNQGEDKTYILNPLALVQKGAVIYLICTRHDKTEVQTFALHRFKSAKVLESRALHPVNFDIDHYIDSGALGFRVDYNQPTESIQLTLTMTEQTAKTFYESQLSKDQTITPIEENIVEVTATVPFTSQLVWWLRSFGKKLLHIEPVQVHNAVREIEPDSK,not soluble
4,MGSDKIHHHHHHMLEVKKLTVCYNDFLALNEISLKIQEGALTGIFGPNGAGKSTLLKAMLNIIPHQGEVSINNEDINKKLVKIAYVEQKADIDFTFPIKVKECVSMGTYAGMKVFQRIKNAEWQKVSKALEKVDMGKYSNHQIGELSGGQFQRVLLARCLAQNADFIFLDEPFVGIDLVSERIIMDTLKELKHQGKTVLIVHHDLSKVKKYFDNIILLNRNLIAHGSVESVFNEENLKKAYGDTIFIGEGE,not soluble
5,MGSDKIHHHHHHMLFLKELESNLTVSKLMELCFEHPSYKDYCSVISTKKGEVLESLSPAGTKVYFVLSGIYGMIVEEDAEMEEESYKESIVRFLQKGDSFGLYHLFYDEWSPHVSMQSLGHGEVMEVDSNFLFSIFDKKDENNFFMIKVMAEELREAHTFAKLSFLKKEERIRKAILKCAQTLGTFSDNGILLPREITQEVLARYTNTSREYVAHTVMHLIKEDIIRNRPKPLLVMDKTRL,not soluble
6,MGSDKIHHHHHHMLFNTRPKEDRKDLYDREKEIEMIKDSIARGEWIAVLGMRRIGKTSVVNVAVKEIGAIKVSINLMRIHDSRKKQYPKHVLISLLIEEINEAIKNYTILGKVAKLLSNILGVEEIQTNKVRAKLTKIRGTDITYIIREMDSIARDNKKQLVIILDEAQELAKVNGLDFPSIFHDVYDNCKNTVIIFTGSMVKLIEKTLKNIEYTEPFFGRYIRKITLGRFLPEQSREFLEKGFEEEGIKVDESVIDEAVKRLDGIPGWLTLFGSEYTFSAKMGTKPRIDEIIEKAINEVRNEARNFIFSTQSPLRYSAVILALDRLGGKGELHEIVKVSSTILNENIPEPRVYEILNRLVEFDFIERREDNEYYLHQDEPNRKGLILAAKDSPASYSI,not soluble
7,MGSDKIHHHHHHMLINRNIVALFALPFMASATASELSIGAGAAYNESPYRGYNENTKAIPLISYEGDTFYVRQTTLGFILSQSEKNELSLTASWMPLEFDPTDNDDYAMQQLDKRDSTAMAGVAWYHHERWGTVKASAAADVLDNSNGWVGELSVFHKMQIGRLSLTPALGVLYYDENFSDYYYGISESESRRSGLASYSAQDAWVPYVSLTAKYPIGEHVVLMASAGYSELPEEITDSPMIDRNESFTFVTGVSWRF,not soluble
8,MGSDKIHHHHHHMLKICVIGSSGHFRYALEGLDEECSITGIAPGVPEEDLSKLEKAISEMNIKPKKYNNWWEMLEKEKPDILVINTVFSLNGKILLEALERKIHAFVEKPIATTFEDLEKIRSVYQKVRNEVFFTAMFGIRYRPHFLTAKKLVSEGAVGEIRLVNTQKSYKLGQRPDFYKKRETYGGTIPWVGIHAIDWIHWITGKKFLSVYATHSRLHNSGHGELETTALCHFTLENEVFASLSIDYLRPQGAPTHDDDRMRIVGTRGIVEVINERVFLTDEKGHREVPLVEKGQIFEDFLREIRGQGKCMVTPEDSILTTEIALKARLSADTGQIVLI,not soluble
9,MGSDKIHHHHHHMLKIGPIEMKNQVVLAPMAGVCNPAFRLIAKEFGAGLVCAEMVSDKAILHKNEKSLSMLYVDEREKPLSLQIFGGEKETLVEAAKFVDKNTNADIIDINMGCPVPKITKCDAGARWLLDPNKIYDMVSAVVDEVDKPVTVKMRIGWDEEHIYAVENAQAVERAGGAAVAVHGRTRVQMYEGTADWNIIREVKQAVGIPVIGNGDVKTPQDAKRMLDEIGVDGVMIGRAALGNPWMLYRTIHYLETGELLPDPTPREKMDVCMIHLDRLIKLKGENVAVREMRKHAAWYLKGLRGNGKIRDQINQFETREDVSSTLYAYIEELEAKMAEKSASVV,not soluble
10,MGSDKIHHHHHHMLLALSTWSEIEERLKSSTSVVVPIGSNEQHGPTGLLGTDWLCPEIIAHEASKRASDKVLVAPTFNIGMAQHHLAFPGTIFLRPSTFIAAIGDWVRSLGAHGFTRIYFLNGHGGNVASIEAAFSEIYADYSFRQQRAPFALKLKNWWDLAGVNALANRQFPTGHGSHATPSEIAVTQWAYPETIKTAAYSPPIAPTGPIREALDFRARYADGRMGSDPAQATPEKGGELVSMAANALIEDLAAFAAERAPA,not soluble
11,MGSDKIHHHHHHMLLIDKLSNHENFTNTEQRIADYILKNITDIPPMNIDKLSKVTYTSHSAVVRLTKKLGFEGFKDFKVAISEAVYSQTTNMNSVDANFPFDSNDSVSTISKKVAELSVESIQRTFAQLDERLIEEAANTIAKSERIFLFAQGDSQIRARSFQNKLVKLNRFAILGEEYSDEDWTAANLTKKDCAIFISYGGRISQYERMLTHFSENKIPSVVLTGNQKSPLIRLAQTAIVTTQNEYDFLKISTFSSQITFEYLLDTIFSVIYAKEYQQNIINLKNKFNLIQRGTLSEGLAKEHDSK,not soluble
12,MGSDKIHHHHHHMLLKLLHYLRCPQCRSQLSLSEATVGDWVEQGQLLCTQCRRTYAITKGIAYLYVENEEWKQLAAEAAGWVQMAKDAGCYDQTGIDIDFRLPYVPIPPWIDIARAFDIVLNIVRPRPGAMVVDIGAGRGWAAKQFAIRGCHAVAVEINDDDQIGLGRSLALMQHANVQYDLLIASSQRLPLADESFDIVFASAALHHSSCLATLLSEAARVLRRGGKLIAIHEPCIADHVTPEQDAPNIAQETAYNIHESRPKLDDYRHALRHAGLQELALFNHELYGTSIEDMQQWAANHWLSLLTADQIAMLRRKRTPTLWRTIRILRSRLQQLPDTTLVPPQDWMDQYYRHVGGSLTIIAQKP,not soluble
13,MGSDKIHHHHHHMLLMPTKDWRWEFNEEYGQLALSLDTQMSFLTAYKTKMLIPDALKGMKFSVEHAKFYIRMLERLPQLLTLSDAMIVQTALNATAAHFLLKPQMPKSWFFDVSDECVYFDLGKVFQLKNNQQSMLVLVVEVGLQSVLVMNLSAACQLSDNKSLGQFDTIKVMHDRLHPLSRAKQIVAA,not soluble
14,MGSDKIHHHHHHMLLNLFNEMRAAKVPVSVRELLDLIDALKHRVVFADMDEFYYLARTIMVKDERHFDKFDRAFGAYFKGLEKLDDHLKALIPEEWLRKEFERLLTDEEKAQIQSLGGLDKLIEEFKKRLEEQKERHAGGNKWIGTGGTSPFGSGGFNPEGIRVGDAGKRQGKAAKVWDQREYKNLDDQVELGTRNIKIALRRLRKFAREGAAEELDIDGTIDHTAKDAGLLNIQMRPERRNTVKLLLLLDIGGSMDAHVKVCEELFSACKTEFKHLEYFYFHNFIYESVWKNNLRRSSERTATFDLLHKYGPDYKVVFVGDAAMAPYEITQAGGSVEHWNEEAGYVWMQRFMEKYKKLIWINPYPKDTWNYTASTGLVRELVKEQMYPLTLSGLEEGMRFLSRG,not soluble
